Results published in paper PMC2732903.
Values belong to the molecule of their own block, whether it stands above or below them.

How the values were obtained:
[1] = tested on: Wt26 (DNA, G4) TTAGGGTTAGGGTTAGGGTTAGGGTT; test: EMSA, inhibition of hPOT1 binding; conditions: 100 mM NaCl; 50 mM HEPES pH 7.9, room temperature; 30 nM hPOT1 displaced; 20 nM DNA; indirect
[2] = tested on: Wt26 (DNA, G4) TTAGGGTTAGGGTTAGGGTTAGGGTT; test: EMSA, inhibition of Topo IIIα binding; conditions: 100 mM NaCl; 50 mM HEPES pH 7.9, room temperature; 50 nM Topo IIIα displaced; 20 nM DNA; indirect
[3] = tested on: 21G (DNA, G4) GGGTTAGGGTTAGGGTTAGGG; test: EMSA, inhibition of Topo IIIα binding; conditions: 100 mM NaCl; 50 mM HEPES pH 7.9, room temperature; 50 nM Topo IIIα displaced; 20 nM DNA; indirect
[4] = tested on: 21Gmu (21G mu3) (DNA, single strand) GGCTTACGGTTAGCGTTAGGG; test: EMSA, inhibition of Topo IIIα binding; conditions: 100 mM NaCl; 50 mM HEPES pH 7.9, room temperature; 50 nM Topo IIIα displaced; 20 nM DNA; indirect
[5] = tested on: S310 (DNA, single strand) CCAGCTCTGCTTTGCATCTTT; test: EMSA, inhibition of Topo IIIα binding; conditions: 100 mM NaCl; 50 mM HEPES pH 7.9, room temperature; 50 nM Topo IIIα; 20 nM DNA; up to 10 µM telomestatin; indirect
[6] = molecular target: T1, Topoisomerase IIIα (Topo III) (human, UniProt Q13472 1-1001); test: EMSA; no ligand; probe 20 nM, Topo III 50 nM; 50 mM HEPES pH 7.9, 100 mM NaCl, 0.1 mM EDTA, 4% sucrose, 2% glycerol, 0.1 mg/mL BSA, 0.02% bromophenol blue, 20 nM probe, room temperature 30 min; 1% agarose; conditions: protein: recombinant; label: 32P; single strand
T1 sequence: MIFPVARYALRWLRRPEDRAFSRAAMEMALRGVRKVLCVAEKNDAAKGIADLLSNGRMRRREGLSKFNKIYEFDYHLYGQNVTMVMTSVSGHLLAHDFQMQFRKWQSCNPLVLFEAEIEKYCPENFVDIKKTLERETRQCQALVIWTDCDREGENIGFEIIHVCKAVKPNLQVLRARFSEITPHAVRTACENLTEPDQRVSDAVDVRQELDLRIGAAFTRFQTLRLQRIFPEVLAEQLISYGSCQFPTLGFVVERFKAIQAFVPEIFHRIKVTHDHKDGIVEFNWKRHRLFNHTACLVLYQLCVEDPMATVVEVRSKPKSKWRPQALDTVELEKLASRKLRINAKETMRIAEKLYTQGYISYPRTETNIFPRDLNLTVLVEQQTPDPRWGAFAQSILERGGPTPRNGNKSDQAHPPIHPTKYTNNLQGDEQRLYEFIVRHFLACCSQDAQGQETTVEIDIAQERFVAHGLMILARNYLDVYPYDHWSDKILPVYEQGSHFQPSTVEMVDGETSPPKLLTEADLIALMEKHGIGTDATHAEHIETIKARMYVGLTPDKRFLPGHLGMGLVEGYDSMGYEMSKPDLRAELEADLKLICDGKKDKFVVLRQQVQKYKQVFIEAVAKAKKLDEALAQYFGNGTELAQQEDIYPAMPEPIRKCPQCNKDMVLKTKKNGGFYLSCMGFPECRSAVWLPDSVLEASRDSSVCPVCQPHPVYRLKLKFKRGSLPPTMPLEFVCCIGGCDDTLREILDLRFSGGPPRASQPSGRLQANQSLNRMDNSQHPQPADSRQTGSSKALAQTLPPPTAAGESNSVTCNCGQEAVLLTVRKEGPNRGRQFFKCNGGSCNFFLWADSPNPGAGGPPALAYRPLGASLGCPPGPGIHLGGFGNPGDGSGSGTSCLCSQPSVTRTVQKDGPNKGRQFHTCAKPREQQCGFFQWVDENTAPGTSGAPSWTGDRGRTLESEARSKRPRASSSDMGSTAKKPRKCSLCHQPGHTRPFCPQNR

[7] = molecular target: T1, Topoisomerase IIIα (Topo III); test: EMSA; no telomestatin; 50 mM HEPES pH 7.9, 100 mM NaCl, 0.1 mM EDTA, 4% sucrose, 2% glycerol, 0.1 mg/mL BSA, 0.02% bromophenol blue, 20 nM probe, room temperature 30 min; 1% agarose; conditions: protein: recombinant
[8] = molecular target: T1, Topoisomerase IIIα (Topo III); test: competition; unlabelled competitor vs 32P-24C; more potent than Pu22myc; non-G4 IC50s 4.3-10.1-fold lower than G4 oligos overall; 50 mM HEPES pH 7.9, 100 mM NaCl, 0.1 mM EDTA, 4% sucrose, 2% glycerol, 0.1 mg/mL BSA, 0.02% bromophenol blue, 20 nM probe, room temperature 30 min; 1% agarose; conditions: protein: recombinant; single strand, cannot form G4
[9] = molecular target: T1, Topoisomerase IIIα (Topo III); test: competition; unlabelled competitor vs 32P-24C (20 nM), Topo III 50 nM; 50 mM HEPES pH 7.9, 100 mM NaCl, 0.1 mM EDTA, 4% sucrose, 2% glycerol, 0.1 mg/mL BSA, 0.02% bromophenol blue, 20 nM probe, room temperature 30 min; 1% agarose; conditions: protein: recombinant; G4-forming
hPOT1 = molecular target: T2, hPOT1 (human, UniProt Q9NUX5 1-634); test: EMSA; no telomestatin; POT1 30 nM, probe 20 nM; 50 mM HEPES pH 7.9, 100 mM NaCl, 0.1 mM EDTA, 4% sucrose, 2% glycerol, 0.1 mg/mL BSA, 0.02% bromophenol blue, 20 nM probe, room temperature 30 min; 1% agarose; conditions: protein: recombinant; label: 32P; G4-forming
T2 sequence: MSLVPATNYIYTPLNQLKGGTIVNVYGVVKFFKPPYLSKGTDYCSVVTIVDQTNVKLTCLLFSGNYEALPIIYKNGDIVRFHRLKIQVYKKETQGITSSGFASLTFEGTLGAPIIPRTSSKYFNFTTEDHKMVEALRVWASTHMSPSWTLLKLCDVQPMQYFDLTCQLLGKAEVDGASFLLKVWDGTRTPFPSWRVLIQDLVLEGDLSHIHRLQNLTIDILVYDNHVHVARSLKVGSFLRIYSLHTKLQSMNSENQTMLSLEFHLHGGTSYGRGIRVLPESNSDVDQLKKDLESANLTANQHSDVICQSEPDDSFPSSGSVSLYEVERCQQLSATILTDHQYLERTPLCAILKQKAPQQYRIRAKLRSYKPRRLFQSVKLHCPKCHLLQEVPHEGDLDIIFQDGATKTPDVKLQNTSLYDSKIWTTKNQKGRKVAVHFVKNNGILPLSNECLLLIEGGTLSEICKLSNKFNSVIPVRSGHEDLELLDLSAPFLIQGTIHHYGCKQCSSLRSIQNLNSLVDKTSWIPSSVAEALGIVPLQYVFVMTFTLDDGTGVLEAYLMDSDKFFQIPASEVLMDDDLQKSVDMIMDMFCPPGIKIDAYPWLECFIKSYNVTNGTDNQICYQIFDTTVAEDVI

IC50 [1]: 100 nM
IC50 [2]: 60 nM
IC50 [3]: 300 nM
IC50 [4]: > 10000 nM
binding [5]: no
Molecule: Cc1oc2nc1-c1nc(co1)-c1nc(co1)-c1nc(co1)-c1nc(co1)-c1nc(co1)C1=NC(CS1)c1nc-2c(C)o1 (stereo not shown)

Molecule: CCCTAACCCTAACCCTAACCCTAA (ssDNA) [24C]
binding result [6]: binds

Molecule: CCAGCTCTGCTTTGCATCTTT (ssDNA) [S310]
binding result ([7]; label: 32P): binds

Molecule: GAGGGTGAAGAGGGTGGGGAAG (ssDNA) [Pu22mu]
binding result [8]: binds

Molecule: GAGGGTGGGGAGGGTGGGGAAG (structured_DNA) [Pu22myc]
binding signal [9]: ~3 fold higher concentration than Pu22mu needed to inhibit binding

Molecule: GGGTTAGGGTTAGGGTTAGGG (structured_DNA) [21G]
binding result ([7]; label: 32P when used as probe, G4-forming): binds

Molecule: TTAGGGTTAGGGTTAGGGTTAGGGTT (structured_DNA) [Wt26]
binding result ([7]; label: 32P, G4-forming): binds
binding result (hPOT1): binds

Molecule: GGCTTACGGTTAGCGTTAGGG (ssDNA) [21G mu3 (21Gmu)]
binding result ([7]; label: 32P when used as probe, single strand, cannot form G4): binds
